Numbered stars: 1 amine (or outer) side, 2 acyl side, 3 side chain; on linkers, the order of the positions; unused ones are H or OH. Square brackets hold non-standard residues; d marks the D form. Side chains are listed from the residue outwards. Ends that are not written are not given here. * marks the point of attachment. γGlu = O=C(O)[C@H](CCC(=O)[*:2])N[*:1]; Palmitoyl = CCCCCCCCCCCCCCCC(=O)*; Aib = CC(C)(N)C(=O)O

The target of experiment [1] is human glucagon receptor (human, UniProt P47871 26-477). Put plainly: cell-based or functional assay.
For experiment [2], the target named is human glucagon-like peptide 1 receptor (human, UniProt P43220 24-463). Briefly: cell-based or functional assay.
Sequence of human glucagon-like peptide 1 receptor (P43220 24-463): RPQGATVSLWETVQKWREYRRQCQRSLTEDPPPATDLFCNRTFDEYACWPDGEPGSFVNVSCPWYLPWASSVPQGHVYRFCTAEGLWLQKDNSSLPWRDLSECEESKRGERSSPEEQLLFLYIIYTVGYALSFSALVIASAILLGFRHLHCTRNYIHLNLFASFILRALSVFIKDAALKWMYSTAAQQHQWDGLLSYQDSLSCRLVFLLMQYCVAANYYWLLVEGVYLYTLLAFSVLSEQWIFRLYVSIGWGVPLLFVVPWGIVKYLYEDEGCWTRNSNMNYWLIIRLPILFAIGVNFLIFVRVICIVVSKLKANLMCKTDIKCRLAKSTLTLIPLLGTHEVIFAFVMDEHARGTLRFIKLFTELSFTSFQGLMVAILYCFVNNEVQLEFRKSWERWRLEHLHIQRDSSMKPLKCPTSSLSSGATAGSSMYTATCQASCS

B1: L006-0176 (peptide)
peptide: H-HSQGTFTSDYSKYLDSKAAHDFVEWLMNT-NH2
As to B1, the “GLUR EC50 (nM), cAMP formation in HEK293 cells expressing human Glucagon-R” value (shortened to “GLUR EC50 (nM), cAMP formation”) in experiment [1] came out at 0.57 nM. In addition, the “GLP-1R EC50 (nM), cAMP formation in HEK293 cells expressing human GLP-1-R” value (shortened to “GLP-1R EC50 (nM), cAMP formation”) in experiment [2] turned out to be 0.44 nM.

B2: ZP2669 (peptide)
peptide: H-HSQGTFTSDYSKYLDSKAAHDFVEWLLRA-NH2
Turning to B2, the “GLUR EC50 (nM), cAMP formation” value in experiment [1] amounted to 0.05 nM. Besides, the “GLP-1R EC50 (nM), cAMP formation” value in experiment [2] came to 0.05 nM.

B3: ZP2866 (peptide)
peptide: H[dS]QGTFTSDYSKYLDSKAAHDFVEWLLRA-NH2
For B3, the “GLUR EC50 (nM), cAMP formation” value in experiment [1] is 0.11 nM. Further, the “GLP-1R EC50 (nM), cAMP formation” value in experiment [2] was found to be 0.09 nM.

B4: L006-0170 (peptide)
peptide: H-HSQGTFTSDYSKYLDSKRAHDFVEWLLRA-NH2
As for B4, the “GLUR EC50 (nM), cAMP formation” value in experiment [1] turned out to be 0.79 nM. Besides, the “GLP-1R EC50 (nM), cAMP formation” value in experiment [2] was 0.5 nM.

B5: ZP2867 (peptide)
peptide: H[Aib]QGTFTSDYSKYLDSKAAHDFVEWLLRA-NH2
Turning to B5, the “GLUR EC50 (nM), cAMP formation” value in experiment [1] is 0.06 nM. In addition, the “GLP-1R EC50 (nM), cAMP formation” value in experiment [2] is 0.08 nM.

B6: L006-0239 (peptide)
peptide: H-HSQGTFTSDYSKYLDKKAAHDFVEWLLRA-NH2
As to B6, in experiment [1], the “GLUR EC50 (nM), cAMP formation” value is 1.05 nM. Besides, the “GLP-1R EC50 (nM), cAMP formation” value in experiment [2] was determined as 0.98 nM.

B7: ZP2872 (peptide)
peptide: HSQGTFTSDYSKYLDSK([γGlu-Palmitoyl])AAHDFVEWLLRA-NH2
For the molecule B7, the “GLUR EC50 (nM), cAMP formation” value in experiment [1] was 0.085 nM. Further, the “GLP-1R EC50 (nM), cAMP formation” value in experiment [2] came to 0.103 nM.

B8: L006-0208 (peptide)
peptide: H-HSQGTFTSDYSKYLDSKAAKDFVEWLLRA-NH2
In the case of B8, the “GLUR EC50 (nM), cAMP formation” value in experiment [1] amounted to 0.55 nM. Moreover, in experiment [2], the “GLP-1R EC50 (nM), cAMP formation” value was 0.57 nM.

B9: L006-0212 (peptide)
peptide: H-HSQGTFTSDYSKYLDSKAAHDFVKWLLRA-NH2
As for B9, the “GLUR EC50 (nM), cAMP formation” value in experiment [1] stood at 1.23 nM. In addition, the “GLP-1R EC50 (nM), cAMP formation” value in experiment [2] was found to be 0.76 nM.

B10: L006-0172 (peptide)
peptide: H-HSQGTFTSDYSKYLDSKAAHDFVQWLLRA-NH2
For the molecule B10, the “GLUR EC50 (nM), cAMP formation” value in experiment [1] worked out at 0.37 nM. The “GLP-1R EC50 (nM), cAMP formation” value in experiment [2] amounted to 0.21 nM.

B11: L006-0171 (peptide)
peptide: H-HSQGTFTSDYSKYLDSKAAQDFVEWLLRA-NH2
With B11, the “GLUR EC50 (nM), cAMP formation” value in experiment [1] was 0.78 nM. For the same molecule, in experiment [2], the “GLP-1R EC50 (nM), cAMP formation” value was 0.37 nM.

B12: ZP2667 (peptide)
peptide: H-HSQGTFTSDYSKYLDSKAAQDFVQWLMNT-NH2
As to B12, in experiment [1], the “GLUR EC50 (nM), cAMP formation” value stood at 0.07 nM. The “GLP-1R EC50 (nM), cAMP formation” value in experiment [2] is 0.02 nM.

B13: L006-0169 (peptide)
peptide: H-HSQGTFTSDYSKYLDSRAAHDFVEWLLRA-NH2
For B13, the “GLUR EC50 (nM), cAMP formation” value in experiment [1] stood at 152 nM. In addition, the “GLP-1R EC50 (nM), cAMP formation” value in experiment [2] is 0.99 nM.

B14: L006-0296 (peptide)
peptide: H-HSQGTFTSDYSKYLDSKAAHDFVEWLLRA-OH
For the molecule B14, the “GLUR EC50 (nM), cAMP formation” value in experiment [1] was 0.12 nM. In addition, the “GLP-1R EC50 (nM), cAMP formation” value in experiment [2] was determined as 0.14 nM.

B15: ZP2668 (peptide)
peptide: H-HSQGTFTSDYSKYLDSKAARDFVRWLKLA-NH2
Consider B15, for which the “GLUR EC50 (nM), cAMP formation” value in experiment [1] was determined as 0.8 nM. Further, the “GLP-1R EC50 (nM), cAMP formation” value in experiment [2] worked out at 0.08 nM.

B16: ZP2753 (peptide)
peptide: H-HSQGTFTSDYSKYLDSLAAQDFVQWLLNT-NH2
For B16, the “GLUR EC50 (nM), cAMP formation” value in experiment [1] stood at 0.08 nM. Further, the “GLP-1R EC50 (nM), cAMP formation” value in experiment [2] was 0.04 nM.

For the origin of these results see patent US20150080295A1 (ZEALAND PHARMA A S, published 2015).
